Source: patent US5681819
Values belong to the molecule of their own block, whether it stands above or below them.

Assays:
[1] = target: receptor on the rat intestine surface that binds the C-tail of BAL (CT-receptors)
[2] = target: receptor on the rat intestine surface that binds the C-tail of BAL (CT-receptors); remark: listed apart in the source
[3] = target: receptor on the rat intestine surface that binds the C-tail of BAL (CT-receptors); remark: listed apart in the source
[4] = target: receptor on the mouse small intestine surface that binds the C-tail of BAL (CT receptor); assay: 125I-labelled protein retained in ligated mouse small intestine segments after washing; mean of 3 experiments

cholesterol uptake of rat intestine after removal of bound BAL with EGTA [1]: 16 % of control
Molecule: rat endogenous intestinal BAL (from UniProt P07882) (enzyme)

cholesterol uptake of rat intestine segments from 3H cholesterol oleate [2]: 10 % of control
B1: isolated C-tail of human milk BAL (protein)
chain: ALPTVTDQEATPVPPTGDSEATPVPPTGDSETAPVPPTGDSGAPPVPPTGDSGAPPVPPTGDSGAPPVPPTGDSGAPPVPPTGDSGAPPVPPTGDSGAPPVPPTGDSGAPPVPPTGDAGPPPVPPTGDSGAPPVPPTGDSGAPPVTPTGDSETAPVPPTGDSGAPPVPPTGDSEAAPVPPTDDSK
modifications: about 8 to 10 O-linked oligosaccharides per C-tail molecule, most if not all on threonine (fucose, galactose, galactosamine, glucosamine)

Cholesterol Uptake [3]: 7.32 nmol/g/h
Bound [4]: 33 ng/cm
B2: recombinant truncated form of bile salt-activated lipase (T-BAL, residues 1-538 lacking the carboxy terminal end) (enzyme)
chain: AKLGAVYTEGGFVEGVNKKLGLLGDSVDIFKGIPFAAPTKALENPQPHPGWQGTLKAKNFKKRCLQATITQDSTYGDEDCLYLNIWVPQGRKQVSRDLPVMIWIYGGAFLMGSGHGANFLNNYLYDGEEIATRGNVIVVTFNYRVGPLGFLSTGDANLPGNYGLRDQHMAIAWVKRNIAAFGGDPNNITLFGESAGGASVSLQTLSPYNKGLIRRAISQSGVALSPWVIQKNPLFWAKKVAEKVGCPVGDAARMAQCLKVTDPRALTLAYKVPLAGLEYPMLHYVGFVPVIDGDFIPADPINLYANAADIDYIAGTNNMDGHIFASIDMPAINKGNKKVTEEDFYKLVSEFTITKGLRGAKTTFDVYTESWAQDPSQENKKKTVVDFETDVLFLVPTEIALAQHRANAKSAKTYAYLFSHPSRMPVYPKWVGADHADDIQYVFGKPFATPTGYRPQDRTVSKAMIAYWTNFAKTGDPNMGDSAVPTHWEPYTTENSGYLEITKKMGSSSMKRSLRTNFLRYWTLTYLALPTVTDQEAT
modifications: not glycosylated (expressed in E. coli); 125I-labelled in the mouse intestine binding experiment

Cholesterol Uptake [3]: 14.4 nmol/g/h
Bound [4]: 384 ng/cm
B3: native human milk bile salt-activated lipase (enzyme)
chain: AKLGAVYTEGGFVEGVNKKLGLLGDSVDIFKGIPFAAPTKALENPQPHPGWQGTLKAKNFKKRCLQATITQDSTYGDEDCLYLNIWVPQGRKQVSRDLPVMIWIYGGAFLMGSGHGANFLNNYLYDGEEIATRGNVIVVTFNYRVGPLGFLSTGDANLPGNYGLRDQHMAIAWVKRNIAAFGGDPNNITLFGESAGGASVSLQTLSPYNKGLIRRAISQSGVALSPWVIQKNPLFWAKKVAEKVGCPVGDAARMAQCLKVTDPRALTLAYKVPLAGLEYPMLHYVGFVPVIDGDFIPADPINLYANAADIDYIAGTNNMDGHIFASIDMPAINKGNKKVTEEDFYKLVSEFTITKGLRGAKTTFDVYTESWAQDPSQENKKKTVVDFETDVLFLVPTEIALAQHRANAKSAKTYAYLFSHPSRMPVYPKWVGADHADDIQYVFGKPFATPTGYRPQDRTVSKAMIAYWTNFAKTGDPNMGDSAVPTHWEPYTTENSGYLEITKKMGSSSMKRSLRTNFLRYWTLTYLALPTVTDQEATPVPPTGDSEATPVPPTGDSETAPVPPTGDSGAPPVPPTGDSGAPPVPPTGDSGAPPVPPTGDSGAPPVPPTGDSGAPPVPPTGDSGAPPVPPTGDSGAPPVPPTGDAGPPPVPPTGDSGAPPVPPTGDSGAPPVTPTGDSETAPVPPTGDSGAPPVPPTGDSEAAPVPPTDDSKEAQMPAVIRF
modifications: O-linked oligosaccharides in the C-tail, primarily on threonine; 125I-labelled in the mouse intestine binding experiment
